Results taken from PMC4385751.

Key:
[1] = molecular target: Commercial CD62L from R&D systems, Inc. (human) (UniProt P14151); assay: SPR
[2] = molecular target: Recombinant soluble human CD62L N104E mutant (residues 1-194, C-terminal six-histidine tag) (human) (UniProt P14151); assay: SPR

Kd [1]: 27 µM
Kd [2]: 44 µM
Substance: type III porcine submaxillary mucin (PSM-III) (natural protein)
